assay: DAPI staining after 24 h in sporulation medium; settings: glycan lost; control: gda1Δ strain with wild-type GDA1

Protein	other: sporulation efficiency
Gda1p: N41D (protein) parent chain: MAPIFRNYRFAIGAFAVIMLILLIKTSSIGPPSIARTVTPNASIPKTPEDISILPVNDEPGYLQDSKTEQNYPELADAVKSQTSQTCSEEHKYVIMIDAGSTGSRVHIYKFDVCTSPPTLLDEKFDMLEPGLSSFDTDSVGAANSLDPLLKVAMNYVPIKARSCTPVAVKATAGLRLLGDAKSSKILSAVRDHLEKDYPFPVVEGDGVSIMGGDEEGVFAWITTNYLLGNIGANGPKLPTAAVFDLGGGSTQIVFEPTFPINEKMVDGEHKFDLKFGDENYTLYQFSHLGYGLKEGRNKVNSVLVENALKDGKILKGDNTKTHQLSSPCLPPKVNATNEKVTLESKETYTIDFIGPDEPSGAQCRFLTDEILNKDAQCQSPPCSFNGVHQPSLVRTFKESNDIYIFSYFYDRTRPLGMPLSFTLNELNDLARIVCKGEETWNSVFSGIAGSLDELESDSHFCLDLSFQVSLLHTGYDIPLQRELRTGKKIANKEIGWCLGASLPLLKADNWKCKIQSA	no change
Gda1p: N280D (protein) parent chain: MAPIFRNYRFAIGAFAVIMLILLIKTSSIGPPSIARTVTPNASIPKTPEDISILPVNDEPGYLQDSKTEQNYPELADAVKSQTSQTCSEEHKYVIMIDAGSTGSRVHIYKFDVCTSPPTLLDEKFDMLEPGLSSFDTDSVGAANSLDPLLKVAMNYVPIKARSCTPVAVKATAGLRLLGDAKSSKILSAVRDHLEKDYPFPVVEGDGVSIMGGDEEGVFAWITTNYLLGNIGANGPKLPTAAVFDLGGGSTQIVFEPTFPINEKMVDGEHKFDLKFGDENYTLYQFSHLGYGLKEGRNKVNSVLVENALKDGKILKGDNTKTHQLSSPCLPPKVNATNEKVTLESKETYTIDFIGPDEPSGAQCRFLTDEILNKDAQCQSPPCSFNGVHQPSLVRTFKESNDIYIFSYFYDRTRPLGMPLSFTLNELNDLARIVCKGEETWNSVFSGIAGSLDELESDSHFCLDLSFQVSLLHTGYDIPLQRELRTGKKIANKEIGWCLGASLPLLKADNWKCKIQSA	no change
Gda1p: N41D/N280D/N335D (protein) parent chain: MAPIFRNYRFAIGAFAVIMLILLIKTSSIGPPSIARTVTPNASIPKTPEDISILPVNDEPGYLQDSKTEQNYPELADAVKSQTSQTCSEEHKYVIMIDAGSTGSRVHIYKFDVCTSPPTLLDEKFDMLEPGLSSFDTDSVGAANSLDPLLKVAMNYVPIKARSCTPVAVKATAGLRLLGDAKSSKILSAVRDHLEKDYPFPVVEGDGVSIMGGDEEGVFAWITTNYLLGNIGANGPKLPTAAVFDLGGGSTQIVFEPTFPINEKMVDGEHKFDLKFGDENYTLYQFSHLGYGLKEGRNKVNSVLVENALKDGKILKGDNTKTHQLSSPCLPPKVNATNEKVTLESKETYTIDFIGPDEPSGAQCRFLTDEILNKDAQCQSPPCSFNGVHQPSLVRTFKESNDIYIFSYFYDRTRPLGMPLSFTLNELNDLARIVCKGEETWNSVFSGIAGSLDELESDSHFCLDLSFQVSLLHTGYDIPLQRELRTGKKIANKEIGWCLGASLPLLKADNWKCKIQSA	no change
Gda1p: N335D (protein) parent chain: MAPIFRNYRFAIGAFAVIMLILLIKTSSIGPPSIARTVTPNASIPKTPEDISILPVNDEPGYLQDSKTEQNYPELADAVKSQTSQTCSEEHKYVIMIDAGSTGSRVHIYKFDVCTSPPTLLDEKFDMLEPGLSSFDTDSVGAANSLDPLLKVAMNYVPIKARSCTPVAVKATAGLRLLGDAKSSKILSAVRDHLEKDYPFPVVEGDGVSIMGGDEEGVFAWITTNYLLGNIGANGPKLPTAAVFDLGGGSTQIVFEPTFPINEKMVDGEHKFDLKFGDENYTLYQFSHLGYGLKEGRNKVNSVLVENALKDGKILKGDNTKTHQLSSPCLPPKVNATNEKVTLESKETYTIDFIGPDEPSGAQCRFLTDEILNKDAQCQSPPCSFNGVHQPSLVRTFKESNDIYIFSYFYDRTRPLGMPLSFTLNELNDLARIVCKGEETWNSVFSGIAGSLDELESDSHFCLDLSFQVSLLHTGYDIPLQRELRTGKKIANKEIGWCLGASLPLLKADNWKCKIQSA	no change
